This note sets out measurements from publication doi:10.1101/2023.08.14.553221 (bioRxiv, 2023).

For assay [1], the target named is T1, Fibronectin (FN), full-length, isolated from human plasma (human, UniProt P02751-1). The assay can be described thus: FN-fiber stretch assay.
The target of assay [2] is T1, Fibronectin (FN), full-length, isolated …. Put plainly: cross-linking.
For assay [3] the target is unchanged. Put plainly: microplate protein-binding assay.

B1: R1R2 peptide (collagen-mimicking peptide derived from the SFS FN-binding protein of Streptococcus equi) (peptide)
peptide: GLNGENQKEPEQGERGEAGPPLSGLSGNNQGRPSLPGLNGENQKEPEQGERGEAGPP
As to B1, in assay [1], the binding result was “binds”.

B2: human tissue transglutaminase (hrTG2, recombinantly produced in E.coli) (enzyme)
chain: MAEELVLERCDLELETNGRDHHTADLCREKLVVRRGQPFWLTLHFEGRNYEASVDSLTFSVVTGPAPSQEAGTKARFPLRDAVEEGDWTATVVDQQDCTLSLQLTTPANAPIGLYRLSLEASTGYQGSSFVLGHFILLFNAWCPADAVYLDSEEERQEYVLTQQGFIYQGSAKFIKNIPWNFGQFEDGILDICLILLDVNPKFLKNAGRDCSRRSSPVYVGRVVSGMVNCNDDQGVLLGRWDNNYGDGVSPMSWIGSVDILRRWKNHGCQRVKYGQCWVFAAVACTVLRCLGIPTRVVTNYNSAHDQNSNLLIEYFRNEFGEIQGDKSEMIWNFHCWVESWMTRPDLQPGYEGWQALDPTPQEKSEGTYCCGPVPVRAIKEGDLSTKYDAPFVFAEVNADVVDWIQQDDGSVHKSINRSLIVGLKISTKSVGRDEREDITHTYKYPEGSSEEREAFTRANHLNKLAEKEETGMAMRIRVGQSMNMGSDFDVFAHITNNTAEEYVCRLLLCARTVSYNGILGPECGTKYLLNLNLEPFSEKSVPLCILYEKYRDCLTESNLIKVRALLVEPVINSYLLAERDLYLENPEIKIRILGEPKQKRKLVAEVSLQNPLPVALEGCTFTVEGAGLTEEQKTVEIPDPVEAGEEVKVRMDLLPLHMGLHKLVVNFESDKLKAVKGFRNVIIGPA
modifications: Alexa Fluor 647 on primary amines (fiber stretch assay)
B2: the binding result in assay [2] is “binds”.

B3: short human tissue transglutaminase, aa 1-465 (short hrTG2, barrel 1 and 2 deletion mutant) (domain or fragment)
chain: MAEELVLERCDLELETNGRDHHTADLCREKLVVRRGQPFWLTLHFEGRNYEASVDSLTFSVVTGPAPSQEAGTKARFPLRDAVEEGDWTATVVDQQDCTLSLQLTTPANAPIGLYRLSLEASTGYQGSSFVLGHFILLFNAWCPADAVYLDSEEERQEYVLTQQGFIYQGSAKFIKNIPWNFGQFEDGILDICLILLDVNPKFLKNAGRDCSRRSSPVYVGRVVSGMVNCNDDQGVLLGRWDNNYGDGVSPMSWIGSVDILRRWKNHGCQRVKYGQCWVFAAVACTVLRCLGIPTRVVTNYNSAHDQNSNLLIEYFRNEFGEIQGDKSEMIWNFHCWVESWMTRPDLQPGYEGWQALDPTPQEKSEGTYCCGPVPVRAIKEGDLSTKYDAPFVFAEVNADVVDWIQQDDGSVHKSINRSLIVGLKISTKSVGRDEREDITHTYKYPEGSSEEREAFTRANHLNKL
modifications: Alexa Fluor 647 on primary amines
For B3, the binding result in assay [3] is given as “binds”.

B4: short human TG2 (aa 1-465) pre-incubated with the irreversible inhibitor Z006 (domain or fragment)
chain: B3 chain
Turning to B4, the binding result in assay [3] was “binds”.
